US20130064825A1 (Amgen, published 2013)
Blank lines part the entries; values can stand above or below the binder they belong to.

B3: 16F12, anti-PCSK9 huIgG4 (antibody, V domains shown)
VH: QVHLVESGGGVVQPGRSLRLSCAASGFTFNSFGMHWVRQAPGKGLEWVALIWSDGSDEYYADSVKGRFTISRDNSKNTLYLQMNSLRAEDTAVYYCARAIAALYYYYGMDVWGQGTTVTVSS
VL: QSVLTQPPSVSAAPGQKVTISCSGSSSNIGNNFVSWYQQLPGTAPKLLIYDYNKRPSGIPDRFSGSKSGTSATLGITGLQTGDEADYYCGTWDSSLSAYVFGTGTRVTVLQ
notes: also called 16F12.1
B4: mouse PCSK9, 8xHIS tagged (enzyme, UniProt Q80W65 35-694, looked up)
chain: QDEDGDYEELMLALPSQEDGLADEAAHVATATFRRCSKEAWRLPGTYIVVLMEETQRLQIEQTAHRLQTRAARRGYVIKVLHIFYDLFPGFLVKMSSDLLGLALKLPHVEYIEEDSFVFAQSIPWNLERIIPAWHQTEEDRSPDGSSQVEVYLLDTSIQGAHREIEGRVTITDFNSVPEEDGTRFHRQASKCDSHGTHLAGVVSGRDAGVAKGTSLHSLRVLNCQGKGTVSGTLIGLEFIRKSQLIQPSGPLVVLLPLAGGYSRILNAACRHLARTGVVLVAAAGNFRDDACLYSPASAPEVITVGATNAQDQPVTLGTLGTNFGRCVDLFAPGKDIIGASSDCSTCFMSQSGTSQAAAHVAGIVARMLSREPTLTLAELRQRLIHFSTKDVINMAWFPEDQQVLTPNLVATLPPSTHETGGQLLCRTVWSAHSGPTRTATATARCAPEEELLSCSSFSRSGRRRGDWIEAIGGQQVCKALNAFGGEGVYAVARCCLVPRANCSIHNTPAARAGLETHVHCHQKDHVLTGCSFHWEVEDLSVRRQPALRSRRQPGQCVGHQAASVYASCCHAPGLECKIKEHGISGPSEQVTVACEAGWTLTGCNVLPGASLTLGAYSVDNLCVARVHDTARADRTSGEATVAAAICCRSRPSAKASWVQ
notes: also called mPCSK9-8xHIS; mPCSK9; not shown: 8xHIS tag

Assays:
[1] = target: T1, human PCSK9 (proprotein convertase subtilisin/kexin type 9), wild type (human, UniProt Q8NBP7 31-692); experiment: competition ELISA: biotinylated WT PCSK9 (100 ng/mL) pre-incubated with 11F1, binding to captured LDLR
T1 construct: also called hPCSK9; WT PCSK9

[2] = target: T2, human PCSK9 D374Y mutant (human, UniProt Q8NBP7 31-692, biotinylated (sites not given) in the ELISA formats); experiment: competition ELISA: biotinylated D374Y PCSK9 (20 ng/mL) pre-incubated with 11F1, binding to captured LDLR
T2 construct: also called D374Y PCSK9; huPCSK9 (D374Y)

[3] = target: T1, human PCSK9 (proprotein convertase …); experiment: competition ELISA: biotinylated WT PCSK9 (100 ng/mL) pre-incubated with 11F1, binding to captured LDLR; average of 3
[4] = target: T2, human PCSK9 D374Y mutant; experiment: blocking ELISA: biotinylated D374Y PCSK9 (20 ng/mL) pre-incubated with 11F1, added to plate-captured LDLR; blocked ligand LDLR; streptavidin-HRP, OD450
[5] = target: furin (R&D Systems) (UniProt P09958 108-715, limits assumed); experiment: competition ELISA: 0.4 ug/mL 11F1 pre-incubated with soluble proprotein convertase (furin inhibitor present), then added to plate-captured biotinylated PCSK9; OD450
furin (R&D Systems), sequence (P09958 108-715 limits assumed): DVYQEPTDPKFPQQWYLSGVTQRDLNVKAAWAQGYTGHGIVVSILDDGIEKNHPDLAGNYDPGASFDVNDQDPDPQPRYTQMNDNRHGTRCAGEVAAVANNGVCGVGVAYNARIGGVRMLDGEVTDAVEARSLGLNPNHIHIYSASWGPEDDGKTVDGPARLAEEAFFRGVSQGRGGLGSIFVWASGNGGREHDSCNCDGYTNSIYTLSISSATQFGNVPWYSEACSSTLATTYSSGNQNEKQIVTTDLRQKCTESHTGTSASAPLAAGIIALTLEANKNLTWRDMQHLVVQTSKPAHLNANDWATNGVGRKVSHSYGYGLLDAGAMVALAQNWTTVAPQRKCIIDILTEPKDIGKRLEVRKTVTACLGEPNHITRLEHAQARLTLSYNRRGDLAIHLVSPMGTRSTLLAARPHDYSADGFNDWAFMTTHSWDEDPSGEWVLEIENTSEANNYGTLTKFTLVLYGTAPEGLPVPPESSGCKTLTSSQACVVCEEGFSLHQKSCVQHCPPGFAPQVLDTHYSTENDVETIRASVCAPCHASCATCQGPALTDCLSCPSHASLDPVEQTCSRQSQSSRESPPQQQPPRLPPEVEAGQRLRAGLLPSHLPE

[6] = target: T2, human PCSK9 D374Y mutant; experiment: competition ELISA: biotinylated D374Y PCSK9 (20 ng/mL) pre-incubated with 11F1, binding to captured LDLR; average of 3
[7] = target: T1, human PCSK9 (proprotein convertase …); experiment: cell-based or functional assay
[8] = target: T2, human PCSK9 D374Y mutant; experiment: cell-based or functional assay
[9] = target: T1, human PCSK9 (proprotein convertase …); experiment: blocking ELISA: biotinylated WT PCSK9 (100 ng/mL) pre-incubated with 11F1, added to plate-captured LDLR; blocked ligand LDLR; streptavidin-HRP, OD450
[10] = target: B4; experiment: Biacore solution equilibrium assay: PCSK9 mixed with 21B12.1, free PCSK9 read on immobilised 21B12
[11] = target: B4; experiment: SPR (Biacore 2000), antibody amine-coupled on CM5 chip, PCSK9 injected, pH 7.4; BIAcore (Table 7.1), not the assay of Table 8.2
[12] = target: B4; experiment: KinExA solution equilibrium titration; title: 100pM 16F12 + (1pM ~ 10nM) mPCSK9
[13] = target: B4; experiment: SPR (Biacore 2000), antibody amine-coupled on CM5 chip, PCSK9 injected, pH 7.4
[14] = target: B3; experiment: KinExA; mPCSK9 is varied, 16F12 is fixed at 100 pM; free 16F12 measured
[15] = target: T3, 31H4, anti-PCSK9 huIgG4; experiment: KinExA; mPCSK9 is varied, 31H4 is fixed at 100 pM; free 31H4.1 measured
T3 construct: also called 31H4.1; 31H4 IgG4
T3 sequence (VL, as listed by the source, chain 2 of 2, other chains not shown): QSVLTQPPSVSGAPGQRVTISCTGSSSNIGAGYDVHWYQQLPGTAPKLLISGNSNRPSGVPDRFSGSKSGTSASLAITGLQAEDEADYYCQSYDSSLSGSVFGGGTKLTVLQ

Binder: B3
Kd [12]: 0.223 nM
Kd [13]: 6.4 nM

Binder: B4
IC50 (read off the curve) [14]: ~0.4 nM
IC50 (read off the curve) [15]: ~0.6 nM

Continued, values first:

IC50 [1]: 4.4 to 8.1 nM
IC50 [2]: 7.3 to 10.1 nM
IC50 [3]: 5.9 nM
IC50 (read off the curve) [4]: ~10 nM
binding result [5]: no binding (tested: 20 ug/ml)
IC50 [6]: 9.1 nM
EC50, LDL uptake in HepG2 cells (BODIPY-LDL) [7]: 124 nM
EC50, LDL uptake in HepG2 cells (BODIPY-LDL) [8]: 35.3 nM
IC50 (read off the curve) [9]: ~5 nM
B1: 11F1, anti-PCSK9 antibody (antibody, V domains shown)
VH: EVQLVESGGGLVQPGGSLRLSCAASGFTFSNYWMSWVRQAPGKGLEWVASIKQDGSEKYYVDSVKGRFAISRDNAKNSLFLQMNSLRAEDTAVYYCARDLVLMVYDIDYYYYGMDVWGQGTTVTVSS
VL: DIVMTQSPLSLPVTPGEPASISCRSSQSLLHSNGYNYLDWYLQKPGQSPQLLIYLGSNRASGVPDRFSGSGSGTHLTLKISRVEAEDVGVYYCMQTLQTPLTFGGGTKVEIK
notes: it was detected with anti-human Fc

Kd [10]: 17 nM
Kd [11]: 460 nM
B2: 21B12, anti-PCSK9 huIgG4 (antibody, V domains shown)
VH: QVQLVQSGAEVKKPGASVKVSCKASGYTLTSYGISWVRQAPGQGLEWMGWVSFYNGNTNYAQKLQGRGTMTTDPSTSTAYMELRSLRSDDTAVYYCARGYGMDVWGQGTTVTVSS
VL: QSALTQPASVSGSPGQSITISCTGTSSDVGGYNSVSWYQQHPGKAPKLMIYEVSNRPSGVSNRFSGSKSGNTASLTISGLQAEDEADYYCNSYTSTSMVFGGGTKLTVLQ
notes: also called 21B12.1; 21B12 IgG4
